Results reported in US20100075326A1 (CORNELL UNIVERSITY, published 2010).

Tests used:
[1] = biological target: T1, Botulinum neurotoxin serotype A light chain protease (BoNT/A-LC), YS2H bait fused to Aga2 with C-terminal … (yeast, UniProt P0DPI0 1-448); experiment: predicted from YS2H (flow cytometry of Myc and FLAG tags, Langmuir equation)
T1 construct: range 1-448

[2] = biological target: T2, Botulinum neurotoxin serotype A light chain protease (BoNT/A-LC), soluble, hexahistidine tags at both termini (UniProt P0DPI0 1-448); experiment: SPR (Biacore), A-LC injected over B8-coated chip
T2 construct: range 1-448

[3] = biological target: T2, Botulinum neurotoxin serotype A light …; experiment: SPR (Biacore), A-LC injected over B8-coated chip; remark: listed apart in the source
[4] = biological target: T2, Botulinum neurotoxin serotype A light …; experiment: SPR (Biacore), A-LC injected over G6-coated chip
[5] = biological target: T2, Botulinum neurotoxin serotype A light …; experiment: SPR (Biacore), G6 compared with B8 on A-LC
[6] = biological target: T2, Botulinum neurotoxin serotype A light …; experiment: SPR (Biacore), A-LC injected over G6-coated chip; remark: listed apart in the source

B1: VHH-B8, secreted YS2H prey with C-terminal Myc tag (VHH)
VHH: HVQLQQSGGGLVQPGGSLRLSCAASGSIFSIYAMGWYRQAPGKQRELVAAISSYGSTNYADSVKGRFTISRDNAKNTVYLQMNSLKPEDTAVYYCNADIATMTAVGGFDYWGQGTQVTVSS
Question: Which Kd [1] does the source give for B1 here?
Answer: Its Kd is 38.2 nM.

B2: VHH-B8, soluble, from E. coli (pET20b) (VHH)
VHH: HVQLQQSGGGLVQPGGSLRLSCAASGSIFSIYAMGWYRQAPGKQRELVAAISSYGSTNYADSVKGRFTISRDNAKNTVYLQMNSLKPEDTAVYYCNADIATMTAVGGFDYWGQGTQVTVSS
Question: Which results are given for B2?
Answer: koff [2]: 0.000518 s⁻¹; kon [2]: 226000 M⁻¹ s⁻¹; Kd [3]: 2.3 nM

B3: VHH-G6, secreted YS2H prey with C-terminal Myc tag (VHH)
VHH: HVQLQQSGGGLVQPGGSLRLSCAASGFTLDYYAIGWFRQAPGKEREGVSCISSSGGSTYYADSVKGRFTISRDNAKNTVYLQMNSLKPEDTAVYYCAVAQSCLRGGVRGGYWGQGTQVTVSS
Question: How did the Kd [1] turn out when B3 was run?
Answer: The Kd was 143 nM.

B4: VHH-G6, soluble, from E. coli (pET20b) (VHH)
VHH: HVQLQQSGGGLVQPGGSLRLSCAASGFTLDYYAIGWFRQAPGKEREGVSCISSSGGSTYYADSVKGRFTISRDNAKNTVYLQMNSLKPEDTAVYYCAVAQSCLRGGVRGGYWGQGTQVTVSS
Question: B4 was tested. Which koff [4] did it give?
Answer: Its koff is 0.0182 s⁻¹.

Question: What about the kon [4] of the same binder?
Answer: Its kon is 76100 M⁻¹ s⁻¹.

Question: What about the “fold difference in affinity against B8” value [5] of the same binder?
Answer: The value was 100 fold.

Question: What about the “fold difference in association rate against B8” value [5] of the same binder?
Answer: The value was 3 fold.

Question: And the “fold difference in dissociation rate against B8” value [5]?
Answer: Its value is 34 fold.

Question: What about the Kd [6] of the same binder?
Answer: Its Kd is 230 nM.
